Assay results from patent US9625458.

B1: dipeptide BP K394C mutant conjugated to NBD (protein, Escherichia coli, not shown: small tags and cut ends)
chain: MKTLVYCSEGSPEGFNPQLFTSGTTYDASSVPLYNRLVEFKIGTTEVIPGLAEKWEVSEDGKTYTFHLRKGVKWHDNKEFKPTRELNADDVVFSFDRQKNAQNPYHKVSGGSYEYFEGMGLPELISEVKKVDDNTVQFVLTRPEAPFLADLAMDFASILSKEYADAMMKAGTPEKLDLNPIGTGPFQLQQYQKDSRIRYKAFDGYWGTKPQIDTLVFSITPDASVRYAKLQKNECQVMPYPNPADIARMKQDKSINLMEMPGLNVGYLSYNVQKKPLDDVKVRQALTYAVNKDAIIKAVYQGAGVSAKNLIPPTMWGYNDDVQDYTYDPEKAKALLKEAGLEKGFSIDLWAMPVQRPYNPNARRMAEMIQADWAKVGVQAKIVTYEWGEYLKRACDGEHQTVMMGWTGDNGDPDNFFATLFSCAASEQGSNYSKWCYKPFEDLIQPARATDDHNKRVELYKQAQVVMHDQAPALIIAHSTVFEPVRKEVKGYVVDPLGKHHFENVSIE
modifications: NBD fluorophore (N,N'-dimethyl-N-(iodoacetyl)-N'-(7-nitrobenz-2-oxa-1,3-diazol-4-yl)ethylenediamide) conjugated to the thiol of Cys 394
B2: dipeptide BP K394C-JPW4039 conjugate (receptor, E. coli, not shown: small tags and cut ends)
chain: MKTLVYCSEGSPEGFNPQLFTSGTTYDASSVPLYNRLVEFKIGTTEVIPGLAEKWEVSEDGKTYTFHLRKGVKWHDNKEFKPTRELNADDVVFSFDRQKNAQNPYHKVSGGSYEYFEGMGLPELISEVKKVDDNTVQFVLTRPEAPFLADLAMDFASILSKEYADAMMKAGTPEKLDLNPIGTGPFQLQQYQKDSRIRYKAFDGYWGTKPQIDTLVFSITPDASVRYAKLQKNECQVMPYPNPADIARMKQDKSINLMEMPGLNVGYLSYNVQKKPLDDVKVRQALTYAVNKDAIIKAVYQGAGVSAKNLIPPTMWGYNDDVQDYTYDPEKAKALLKEAGLEKGFSIDLWAMPVQRPYNPNARRMAEMIQADWAKVGVQAKIVTYEWGEYLKRACDGEHQTVMMGWTGDNGDPDNFFATLFSCAASEQGSNYSKWCYKPFEDLIQPARATDDHNKRVELYKQAQVVMHDQAPALIIAHSTVFEPVRKEVKGYVVDPLGKHHFENVSIE
modifications: JPW4039 fluorophore conjugated to the thiol of Cys 394
B3: dipeptide BP D450C-JPW4042 conjugate (receptor, E. coli, not shown: small tags and cut ends)
chain: MKTLVYCSEGSPEGFNPQLFTSGTTYDASSVPLYNRLVEFKIGTTEVIPGLAEKWEVSEDGKTYTFHLRKGVKWHDNKEFKPTRELNADDVVFSFDRQKNAQNPYHKVSGGSYEYFEGMGLPELISEVKKVDDNTVQFVLTRPEAPFLADLAMDFASILSKEYADAMMKAGTPEKLDLNPIGTGPFQLQQYQKDSRIRYKAFDGYWGTKPQIDTLVFSITPDASVRYAKLQKNECQVMPYPNPADIARMKQDKSINLMEMPGLNVGYLSYNVQKKPLDDVKVRQALTYAVNKDAIIKAVYQGAGVSAKNLIPPTMWGYNDDVQDYTYDPEKAKALLKEAGLEKGFSIDLWAMPVQRPYNPNARRMAEMIQADWAKVGVQAKIVTYEWGEYLKRAKDGEHQTVMMGWTGDNGDPDNFFATLFSCAASEQGSNYSKWCYKPFEDLIQPARATCDHNKRVELYKQAQVVMHDQAPALIIAHSTVFEPVRKEVKGYVVDPLGKHHFENVSIE
modifications: JPW4042 fluorophore conjugated to the thiol of Cys 450
B4: dipeptide BP K394C-Acrylodan conjugate (receptor, E. coli, not shown: small tags and cut ends)
chain: MKTLVYCSEGSPEGFNPQLFTSGTTYDASSVPLYNRLVEFKIGTTEVIPGLAEKWEVSEDGKTYTFHLRKGVKWHDNKEFKPTRELNADDVVFSFDRQKNAQNPYHKVSGGSYEYFEGMGLPELISEVKKVDDNTVQFVLTRPEAPFLADLAMDFASILSKEYADAMMKAGTPEKLDLNPIGTGPFQLQQYQKDSRIRYKAFDGYWGTKPQIDTLVFSITPDASVRYAKLQKNECQVMPYPNPADIARMKQDKSINLMEMPGLNVGYLSYNVQKKPLDDVKVRQALTYAVNKDAIIKAVYQGAGVSAKNLIPPTMWGYNDDVQDYTYDPEKAKALLKEAGLEKGFSIDLWAMPVQRPYNPNARRMAEMIQADWAKVGVQAKIVTYEWGEYLKRACDGEHQTVMMGWTGDNGDPDNFFATLFSCAASEQGSNYSKWCYKPFEDLIQPARATDDHNKRVELYKQAQVVMHDQAPALIIAHSTVFEPVRKEVKGYVVDPLGKHHFENVSIE
modifications: acrylodan fluorophore conjugated to the thiol of Cys 394
B5: dipeptide BP W315C-JPW4045 conjugate (receptor, E. coli, not shown: small tags and cut ends)
chain: MKTLVYCSEGSPEGFNPQLFTSGTTYDASSVPLYNRLVEFKIGTTEVIPGLAEKWEVSEDGKTYTFHLRKGVKWHDNKEFKPTRELNADDVVFSFDRQKNAQNPYHKVSGGSYEYFEGMGLPELISEVKKVDDNTVQFVLTRPEAPFLADLAMDFASILSKEYADAMMKAGTPEKLDLNPIGTGPFQLQQYQKDSRIRYKAFDGYWGTKPQIDTLVFSITPDASVRYAKLQKNECQVMPYPNPADIARMKQDKSINLMEMPGLNVGYLSYNVQKKPLDDVKVRQALTYAVNKDAIIKAVYQGAGVSAKNLIPPTMCGYNDDVQDYTYDPEKAKALLKEAGLEKGFSIDLWAMPVQRPYNPNARRMAEMIQADWAKVGVQAKIVTYEWGEYLKRAKDGEHQTVMMGWTGDNGDPDNFFATLFSCAASEQGSNYSKWCYKPFEDLIQPARATDDHNKRVELYKQAQVVMHDQAPALIIAHSTVFEPVRKEVKGYVVDPLGKHHFENVSIE
modifications: JPW4045 fluorophore conjugated to the thiol of Cys 315
B6: dipeptide BP W315C-Acrylodan conjugate (receptor, E. coli, not shown: small tags and cut ends)
chain: MKTLVYCSEGSPEGFNPQLFTSGTTYDASSVPLYNRLVEFKIGTTEVIPGLAEKWEVSEDGKTYTFHLRKGVKWHDNKEFKPTRELNADDVVFSFDRQKNAQNPYHKVSGGSYEYFEGMGLPELISEVKKVDDNTVQFVLTRPEAPFLADLAMDFASILSKEYADAMMKAGTPEKLDLNPIGTGPFQLQQYQKDSRIRYKAFDGYWGTKPQIDTLVFSITPDASVRYAKLQKNECQVMPYPNPADIARMKQDKSINLMEMPGLNVGYLSYNVQKKPLDDVKVRQALTYAVNKDAIIKAVYQGAGVSAKNLIPPTMCGYNDDVQDYTYDPEKAKALLKEAGLEKGFSIDLWAMPVQRPYNPNARRMAEMIQADWAKVGVQAKIVTYEWGEYLKRAKDGEHQTVMMGWTGDNGDPDNFFATLFSCAASEQGSNYSKWCYKPFEDLIQPARATDDHNKRVELYKQAQVVMHDQAPALIIAHSTVFEPVRKEVKGYVVDPLGKHHFENVSIE
modifications: acrylodan fluorophore conjugated to the thiol of Cys 315
B7: dipeptide BP K394C-JPW4042 conjugate (receptor, E. coli, not shown: small tags and cut ends)
chain: MKTLVYCSEGSPEGFNPQLFTSGTTYDASSVPLYNRLVEFKIGTTEVIPGLAEKWEVSEDGKTYTFHLRKGVKWHDNKEFKPTRELNADDVVFSFDRQKNAQNPYHKVSGGSYEYFEGMGLPELISEVKKVDDNTVQFVLTRPEAPFLADLAMDFASILSKEYADAMMKAGTPEKLDLNPIGTGPFQLQQYQKDSRIRYKAFDGYWGTKPQIDTLVFSITPDASVRYAKLQKNECQVMPYPNPADIARMKQDKSINLMEMPGLNVGYLSYNVQKKPLDDVKVRQALTYAVNKDAIIKAVYQGAGVSAKNLIPPTMWGYNDDVQDYTYDPEKAKALLKEAGLEKGFSIDLWAMPVQRPYNPNARRMAEMIQADWAKVGVQAKIVTYEWGEYLKRACDGEHQTVMMGWTGDNGDPDNFFATLFSCAASEQGSNYSKWCYKPFEDLIQPARATDDHNKRVELYKQAQVVMHDQAPALIIAHSTVFEPVRKEVKGYVVDPLGKHHFENVSIE
modifications: JPW4042 fluorophore conjugated to the thiol of Cys 394
B8: dipeptide BP W315C-NBD conjugate (receptor, E. coli, not shown: small tags and cut ends)
chain: MKTLVYCSEGSPEGFNPQLFTSGTTYDASSVPLYNRLVEFKIGTTEVIPGLAEKWEVSEDGKTYTFHLRKGVKWHDNKEFKPTRELNADDVVFSFDRQKNAQNPYHKVSGGSYEYFEGMGLPELISEVKKVDDNTVQFVLTRPEAPFLADLAMDFASILSKEYADAMMKAGTPEKLDLNPIGTGPFQLQQYQKDSRIRYKAFDGYWGTKPQIDTLVFSITPDASVRYAKLQKNECQVMPYPNPADIARMKQDKSINLMEMPGLNVGYLSYNVQKKPLDDVKVRQALTYAVNKDAIIKAVYQGAGVSAKNLIPPTMCGYNDDVQDYTYDPEKAKALLKEAGLEKGFSIDLWAMPVQRPYNPNARRMAEMIQADWAKVGVQAKIVTYEWGEYLKRAKDGEHQTVMMGWTGDNGDPDNFFATLFSCAASEQGSNYSKWCYKPFEDLIQPARATDDHNKRVELYKQAQVVMHDQAPALIIAHSTVFEPVRKEVKGYVVDPLGKHHFENVSIE
modifications: NBD fluorophore conjugated to the thiol of Cys 315
B9: dipeptide BP K394C-Fluorescein conjugate (receptor, E. coli, not shown: small tags and cut ends)
chain: MKTLVYCSEGSPEGFNPQLFTSGTTYDASSVPLYNRLVEFKIGTTEVIPGLAEKWEVSEDGKTYTFHLRKGVKWHDNKEFKPTRELNADDVVFSFDRQKNAQNPYHKVSGGSYEYFEGMGLPELISEVKKVDDNTVQFVLTRPEAPFLADLAMDFASILSKEYADAMMKAGTPEKLDLNPIGTGPFQLQQYQKDSRIRYKAFDGYWGTKPQIDTLVFSITPDASVRYAKLQKNECQVMPYPNPADIARMKQDKSINLMEMPGLNVGYLSYNVQKKPLDDVKVRQALTYAVNKDAIIKAVYQGAGVSAKNLIPPTMWGYNDDVQDYTYDPEKAKALLKEAGLEKGFSIDLWAMPVQRPYNPNARRMAEMIQADWAKVGVQAKIVTYEWGEYLKRACDGEHQTVMMGWTGDNGDPDNFFATLFSCAASEQGSNYSKWCYKPFEDLIQPARATDDHNKRVELYKQAQVVMHDQAPALIIAHSTVFEPVRKEVKGYVVDPLGKHHFENVSIE
modifications: fluorescein (5-iodoacetamidofluorescein) conjugated to the thiol of Cys 394
B10: dipeptide BP D450C-Acrylodan conjugate (receptor, E. coli, not shown: small tags and cut ends)
chain: MKTLVYCSEGSPEGFNPQLFTSGTTYDASSVPLYNRLVEFKIGTTEVIPGLAEKWEVSEDGKTYTFHLRKGVKWHDNKEFKPTRELNADDVVFSFDRQKNAQNPYHKVSGGSYEYFEGMGLPELISEVKKVDDNTVQFVLTRPEAPFLADLAMDFASILSKEYADAMMKAGTPEKLDLNPIGTGPFQLQQYQKDSRIRYKAFDGYWGTKPQIDTLVFSITPDASVRYAKLQKNECQVMPYPNPADIARMKQDKSINLMEMPGLNVGYLSYNVQKKPLDDVKVRQALTYAVNKDAIIKAVYQGAGVSAKNLIPPTMWGYNDDVQDYTYDPEKAKALLKEAGLEKGFSIDLWAMPVQRPYNPNARRMAEMIQADWAKVGVQAKIVTYEWGEYLKRAKDGEHQTVMMGWTGDNGDPDNFFATLFSCAASEQGSNYSKWCYKPFEDLIQPARATCDHNKRVELYKQAQVVMHDQAPALIIAHSTVFEPVRKEVKGYVVDPLGKHHFENVSIE
modifications: acrylodan fluorophore conjugated to the thiol of Cys 450
B11: dipeptide BP D450C-JPW4045 conjugate (receptor, E. coli, not shown: small tags and cut ends)
chain: MKTLVYCSEGSPEGFNPQLFTSGTTYDASSVPLYNRLVEFKIGTTEVIPGLAEKWEVSEDGKTYTFHLRKGVKWHDNKEFKPTRELNADDVVFSFDRQKNAQNPYHKVSGGSYEYFEGMGLPELISEVKKVDDNTVQFVLTRPEAPFLADLAMDFASILSKEYADAMMKAGTPEKLDLNPIGTGPFQLQQYQKDSRIRYKAFDGYWGTKPQIDTLVFSITPDASVRYAKLQKNECQVMPYPNPADIARMKQDKSINLMEMPGLNVGYLSYNVQKKPLDDVKVRQALTYAVNKDAIIKAVYQGAGVSAKNLIPPTMWGYNDDVQDYTYDPEKAKALLKEAGLEKGFSIDLWAMPVQRPYNPNARRMAEMIQADWAKVGVQAKIVTYEWGEYLKRAKDGEHQTVMMGWTGDNGDPDNFFATLFSCAASEQGSNYSKWCYKPFEDLIQPARATCDHNKRVELYKQAQVVMHDQAPALIIAHSTVFEPVRKEVKGYVVDPLGKHHFENVSIE
modifications: JPW4045 fluorophore conjugated to the thiol of Cys 450

biological target: Gly-Leu dipeptide; experiment: fluorimetric titration of the fluorophore conjugate with ligand, fit to a binding isotherm

B1 gave a Kd of 0.006 µM.

biological target: Gly-Leu dipeptide; experiment: fluorimetric titration of the fluorophore conjugate with ligand, fit to binding isotherm

Going from B2 to B3, the Kd falls from 30 µM to 1.5 µM (20-fold). The second binds more tightly here.

Compared with B4, B5 is 7.2-fold lower in Kd: 23 µM for the first, 3.2 µM for the second. The second binds more tightly here.

First: B6
Second: B7
The Kd of the first is 600-fold lower: 0.13 µM for the first, 78 µM for the second. The first binds more tightly here.

First: B8
Second: B9
The Kd of the first is 1600-fold lower: 0.06 µM for the first, 93 µM for the second.

Going from B10 to B11, the Kd falls from 11 µM to 2 µM (5.5-fold).
